Residue numbers refer to the chain shown, from its start.
How the values were obtained:
Assay in all cases: cryo-EM structure
[1] = target: Recombinant human CXCL5 (human)
[2] = target: T1, Recombinant human CXCL2 (human, UniProt P19875 35-107)
T1 sequence: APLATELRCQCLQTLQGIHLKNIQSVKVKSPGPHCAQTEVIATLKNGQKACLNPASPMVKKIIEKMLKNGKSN

[3] = target: T2, Recombinant human CXCL1 (human, UniProt P09341 35-107)
T2 sequence: T1 sequence with P2S, L3V, L20P, K27N, Q48R, M58I, K68N, N69S, G70D

[4] = target: T3, Recombinant human CXCL3 (human, UniProt P19876 35-107)
T3 sequence: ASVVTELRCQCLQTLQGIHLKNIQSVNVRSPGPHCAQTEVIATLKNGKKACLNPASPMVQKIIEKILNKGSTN

## Recombinant human CXCL5 (ligand)
[1]
  stoichiometry N: 2

B1: C-X-C chemokine receptor 2 (CXCR2), FLAG-tagged, purified from Sf9 cells (receptor)
chain: ANFTPVNGSSGNQSVRLVTSSSMEDFNMESDSFEDFWKGEDLSNYSYSSTLPPFLLDAAPCEPESLEINKYFVVIIYALVFLLSLLGNSLVMLVILYSRVGRSVTDVYLLNLALADLLFALTLPIWAASKVNGWIFGTFLCKVVSLLKEVNFYSGILLLACISVDRYLAIVHATRTLTQKRYLVKFICLSIWGLSLLLALPVLLFRRTVYSSNVSPACYEDMGNNTANWRMLLRILPQSFGFIVPLLIMLFCYGFTLRTLFKAHMGQKHRAMRVIFAVVLIFLLCWLPYNLVLLADTLMRTQVIQETCERRNHIDRALDATEILGILHSCLNPLIYAFIGQKFRHGLLKILAIHGLISKDSLPKDSRPSFVGSSSGHTSTTL
[2]
  binding result: binds
[3]
  binding result: binds
[4]
  binding result: binds

Source: publication PMC7617694 (Molecular cell, 2025)
